Results published in patent US20250042956A1.

How the values were obtained:
[1] = molecular target: T1, AT3G49850.1 TRB3 (Arabidopsis thaliana) (UniProt Q9M2X3); experiment: IP-MS rep 1
T1 sequence: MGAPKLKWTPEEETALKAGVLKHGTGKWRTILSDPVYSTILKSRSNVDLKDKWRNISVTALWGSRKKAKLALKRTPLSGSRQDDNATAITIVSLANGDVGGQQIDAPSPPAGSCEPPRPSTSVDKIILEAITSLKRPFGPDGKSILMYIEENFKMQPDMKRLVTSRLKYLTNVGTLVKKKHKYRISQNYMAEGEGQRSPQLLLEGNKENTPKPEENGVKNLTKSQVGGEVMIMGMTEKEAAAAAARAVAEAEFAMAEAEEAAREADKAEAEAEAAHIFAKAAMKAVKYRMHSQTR

[2] = molecular target: T1, AT3G49850.1 TRB3 (Arabidopsis thaliana); experiment: IP-MS rep 2
[3] = molecular target: T1, AT3G49850.1 TRB3 (Arabidopsis thaliana); experiment: X-link IP-MS
[4] = molecular target: T2, AT5G67580.1 TRB2 (Arabidopsis thaliana) (UniProt Q9FJW5); experiment: IP-MS rep 1
T2 sequence: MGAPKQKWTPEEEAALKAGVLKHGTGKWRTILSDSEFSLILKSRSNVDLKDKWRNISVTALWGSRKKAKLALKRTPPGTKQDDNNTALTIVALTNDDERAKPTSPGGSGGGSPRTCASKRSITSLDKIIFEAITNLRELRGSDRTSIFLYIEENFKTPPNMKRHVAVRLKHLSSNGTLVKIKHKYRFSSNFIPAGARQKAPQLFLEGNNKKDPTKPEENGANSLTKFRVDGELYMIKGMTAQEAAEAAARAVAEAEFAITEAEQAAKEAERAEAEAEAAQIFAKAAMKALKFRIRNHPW

[5] = molecular target: T2, AT5G67580.1 TRB2 (Arabidopsis thaliana); experiment: IP-MS rep 2
[6] = molecular target: T2, AT5G67580.1 TRB2 (Arabidopsis thaliana); experiment: X-link IP-MS
[7] = molecular target: AT4G20400.1 JMJ14 (Arabidopsis thaliana), Q8GUI6; experiment: IP-MS rep 1; details: remark: other sources report otherwise
[8] = molecular target: AT4G20400.1 JMJ14 (Arabidopsis thaliana), Q8GUI6; experiment: IP-MS rep 2; details: remark: other sources report otherwise
[9] = molecular target: AT4G20400.1 JMJ14 (Arabidopsis thaliana), Q8GUI6; experiment: X-link IP-MS; details: remark: other sources report otherwise
[10] = molecular target: T3, AT5G17690.1 LHP1 (Arabidopsis thaliana), Q946J8; experiment: IP-MS rep 1; details: remark: other sources report otherwise
T3 chain: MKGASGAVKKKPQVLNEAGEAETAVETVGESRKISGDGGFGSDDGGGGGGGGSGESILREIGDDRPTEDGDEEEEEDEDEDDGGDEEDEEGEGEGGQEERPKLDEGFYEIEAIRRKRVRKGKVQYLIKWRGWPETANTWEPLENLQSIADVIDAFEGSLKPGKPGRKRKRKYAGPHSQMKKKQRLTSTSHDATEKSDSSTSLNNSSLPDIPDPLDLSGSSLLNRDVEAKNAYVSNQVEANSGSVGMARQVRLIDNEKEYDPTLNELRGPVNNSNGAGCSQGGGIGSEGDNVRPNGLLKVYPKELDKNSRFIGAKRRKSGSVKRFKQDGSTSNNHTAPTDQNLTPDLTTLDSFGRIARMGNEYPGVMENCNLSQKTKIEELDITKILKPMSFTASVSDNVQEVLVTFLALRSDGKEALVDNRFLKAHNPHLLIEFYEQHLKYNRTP

[11] = molecular target: T3, AT5G17690.1 LHP1 (Arabidopsis …); experiment: IP-MS rep 2; details: remark: other sources report otherwise
[12] = molecular target: T3, AT5G17690.1 LHP1 (Arabidopsis …); experiment: X-link IP-MS; details: remark: other sources report otherwise
[13] = molecular target: T4, AT4G02020.1 SWN (Arabidopsis thaliana) (UniProt Q9ZSM8); experiment: IP-MS rep 1
T4 sequence (looked up): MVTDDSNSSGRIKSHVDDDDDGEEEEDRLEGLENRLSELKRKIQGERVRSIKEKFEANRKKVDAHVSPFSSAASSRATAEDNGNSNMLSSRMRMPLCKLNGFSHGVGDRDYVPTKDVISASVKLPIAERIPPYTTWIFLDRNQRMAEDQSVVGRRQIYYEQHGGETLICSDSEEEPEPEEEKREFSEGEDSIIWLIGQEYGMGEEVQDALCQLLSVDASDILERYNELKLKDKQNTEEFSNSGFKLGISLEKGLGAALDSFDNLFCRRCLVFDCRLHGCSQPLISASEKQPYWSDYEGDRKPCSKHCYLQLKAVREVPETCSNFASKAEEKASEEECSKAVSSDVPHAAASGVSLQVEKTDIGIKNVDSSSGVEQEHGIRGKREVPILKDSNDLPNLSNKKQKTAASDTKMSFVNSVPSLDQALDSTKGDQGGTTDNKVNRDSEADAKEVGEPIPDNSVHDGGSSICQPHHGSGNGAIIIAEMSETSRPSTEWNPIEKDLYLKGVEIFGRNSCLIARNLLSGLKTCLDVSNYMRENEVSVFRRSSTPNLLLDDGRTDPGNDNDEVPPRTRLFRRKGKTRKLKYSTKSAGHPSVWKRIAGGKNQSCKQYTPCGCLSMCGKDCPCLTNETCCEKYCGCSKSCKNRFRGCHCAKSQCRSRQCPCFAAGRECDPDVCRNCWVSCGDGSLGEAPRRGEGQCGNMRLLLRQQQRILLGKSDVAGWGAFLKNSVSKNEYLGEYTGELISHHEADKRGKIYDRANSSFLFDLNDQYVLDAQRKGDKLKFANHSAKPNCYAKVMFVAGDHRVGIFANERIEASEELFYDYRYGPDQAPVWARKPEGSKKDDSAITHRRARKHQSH

[14] = molecular target: T4, AT4G02020.1 SWN (Arabidopsis thaliana); experiment: IP-MS rep 2
[15] = molecular target: T4, AT4G02020.1 SWN (Arabidopsis thaliana); experiment: X-link IP-MS
[16] = molecular target: T5, AT5G17690.1 LHP1 (Arabidopsis thaliana) (UniProt Q946J8); experiment: IP-MS rep 1
T5 sequence: T3 chain

[17] = molecular target: T5, AT5G17690.1 LHP1 (Arabidopsis thaliana); experiment: IP-MS rep 2

Sequence of AT4G20400.1 JMJ14 (Arabidopsis thaliana), Q8GUI6 (Q8GUI6 whole entry): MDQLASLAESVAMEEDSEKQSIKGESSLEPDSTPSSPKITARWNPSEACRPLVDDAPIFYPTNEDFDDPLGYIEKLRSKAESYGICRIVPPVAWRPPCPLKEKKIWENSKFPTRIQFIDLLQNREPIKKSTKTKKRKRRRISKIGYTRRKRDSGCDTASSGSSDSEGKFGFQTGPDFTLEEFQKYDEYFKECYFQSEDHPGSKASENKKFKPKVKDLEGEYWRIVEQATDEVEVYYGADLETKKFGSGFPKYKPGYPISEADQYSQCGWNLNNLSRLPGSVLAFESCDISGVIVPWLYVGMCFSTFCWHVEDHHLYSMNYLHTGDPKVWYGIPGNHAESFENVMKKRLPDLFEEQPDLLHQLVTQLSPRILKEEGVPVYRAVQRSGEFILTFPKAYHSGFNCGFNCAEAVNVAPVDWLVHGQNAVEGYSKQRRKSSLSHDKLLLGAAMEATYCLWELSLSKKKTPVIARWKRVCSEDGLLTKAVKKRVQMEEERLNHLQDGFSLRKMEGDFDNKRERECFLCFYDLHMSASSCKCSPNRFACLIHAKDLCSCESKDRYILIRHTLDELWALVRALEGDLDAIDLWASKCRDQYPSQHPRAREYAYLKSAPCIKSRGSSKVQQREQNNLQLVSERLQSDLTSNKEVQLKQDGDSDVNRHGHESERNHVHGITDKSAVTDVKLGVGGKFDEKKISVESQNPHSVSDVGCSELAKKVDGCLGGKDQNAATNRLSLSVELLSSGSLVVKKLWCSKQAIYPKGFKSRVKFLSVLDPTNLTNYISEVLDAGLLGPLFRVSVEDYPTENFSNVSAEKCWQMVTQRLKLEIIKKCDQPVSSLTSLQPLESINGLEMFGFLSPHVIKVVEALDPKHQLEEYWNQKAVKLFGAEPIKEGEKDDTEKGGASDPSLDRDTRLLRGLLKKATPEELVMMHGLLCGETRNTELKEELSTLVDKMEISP

B1: FLAG-TRB2 (protein, not shown: small tags and cut ends)
chain: T2 sequence
IP-MS count [1]: 0
IP-MS count [2]: 0
IP-MS count [3]: 4

B2: FLAG-TRB3 (protein, not shown: small tags and cut ends)
chain: T1 sequence
IP-MS count [4]: 12
IP-MS count [5]: 11
IP-MS count [6]: 11

B3: FLAG-TRB3, Q9M2X3 1-295 (protein, not shown: small tags and cut ends)
chain: T1 sequence
IP-MS count [7]: 13
IP-MS count [8]: 12
IP-MS count [9]: 72

B4: FLAG-TRB1, Q8VWK4 1-300 (protein, not shown: small tags and cut ends)
chain: MGAPKQKWTQEEESALKSGVIKHGPGKWRTILKDPEFSGVLYLRSNVDLKDKWRNMSVMANGWGSREKSRLAVKRTFSLPKQEENSLALTNSLQSDEENVDATSGLQVSSNPPPRRPNVRLDSLIMEAIATLKEPGGCNKTTIGAYIEDQYHAPPDFKRLLSTKLKYLTSCGKLVKVKRKYRIPNSTPLSSHRRKGLGVFGGKQRTSSLPSPKTDIDEVNFQTRSQIDTEIARMKSMNVHEAAAVAAQAVAEAEAAMAEAEEAAKEAEAAEAEAEAAQAFAEEASKTLKGRNICKMMIRA
IP-MS count [7]: 34
IP-MS count [10]: 0
IP-MS count [8]: 35
IP-MS count [11]: 1
IP-MS count [9]: 77
IP-MS count [12]: 0

B5: FLAG-TRB1 (protein, not shown: small tags and cut ends)
chain: B4 chain
IP-MS count [13]: 1
IP-MS count [14]: 0
IP-MS count [15]: 2

B6: TRBIP2 (bait of the TRBIP2 IP-MS) (protein, not shown: small tags and cut ends)
chain: MATNACLESDSLLPPRKRLLAGFKNQNSRISNESPSPPFASSSSSTTTSNGSSASAVVHTHHLDHLLNDQTRSPEELAQASKATAALAVKVAKAARATANEKAIIASKAVAAAKNALELFASFPAAETVSCKEPRLIRAINNSPRVLTDCSGHRNKKQKTLTSTMNDGNDVAGVVDSDDGTRVNGKLLLCDNTLKEKTEEESSSLGKRRGRVKLPLSMCAYKDQENGITLEENNLSVSKSEGYNGGVAQVIERPSWKCQDLKSPECVKQNKVVRS
IP-MS count [16]: 2
IP-MS count [17]: 1
